In patent publication US12441790B2, “Binding proteins to the human thrombin receptor, PAR4” (MONASH UNIVERSITY, priority 2017, dated 2025):

What was measured:
[1] = target: T1, hPAR4-biotinylated peptide (Homo sapiens, UniProt Q96RI0); assay: SA chip biotin peptide SPR (Biacore, streptavidin capture); format: binding
T1 construct: host or cells: synthetic peptide
Method: Biacore analysis was performed on a Biacore T200 using two different methods either an anti-mouse Fc capture approach or using a similar method as described above using the ProteoOn system.
A series S sensor chip SA was conditioned using the manufacturers recommended protocol and immobilised with 1 ug/ml hPAR4-biotinylated peptide on FC2 and hPAR1-biotinylated peptide as a control onto FC1. […] Blank injections of buffer alone were also performed. All injections were performed in duplicate and in a random order. After each capture/injection/dissociation cycle the chip was regenerated with a 30 second injection of 0.1M Glycine pH2.0.
For the mAb capture method low levels of ligand mAb and analyte hPAR4 were used in an attempt to produce a 1:1 binding interaction, this method has been used successfully to measure kinetics and affinity KD's (Kamat V and Rafique A (2017) Analytical Biochemistry 530:75-86), despite using a whole IgG.
The kinetics of the binding interaction between the mAbs and hPAR4 was measured using Surface Plasmon Resonance (SPR; Biacore) by two different methods: 1. Anti-mouse Fc mAb capture method and 2. Streptavidin (SA) chip to capture biotinylated peptide. The ka(on) rate and kd(off) rates and KD were measured and fitted to a Langmuir model using the Biacore evaluation software.

[2] = test system: PAR4 peptide vs PAR1, PAR2 and PAR3 peptides; assay: ELISA specificity screening, PAR4 peptide vs PAR1, 2 or 3 peptide; format: binding, human; conditions: hybridoma supernatant
Method: 96-well ELISA plates were coated with 50 μl of antigen diluted to a concentration of 4 μg/ml in coating buffer (0.1M Sodium Hydrogen Carbonate (NaHCO3) (Merck, #1.06329.0500)). Plates were incubated overnight at 4° C.
Wells were then washed with an automated plate washer (300 μl 1×PBS, 3 times). The wells were blocked with 200 μl of blocking buffer (3% BSA/1×PBS (BSA: (Sigma, #1001647742)) for 1 hour at room temperature followed by washing as above.
50 μl of undiluted hybridoma cell culture supernatant was added into appropriate wells and incubated at room temperature for 1 hour followed by washing as above. […] Wells were washed as above. A set of substrate tablets (1×silver, 1×gold) into 20 ml of ddH20 by shaking vigorously on the thermomixer for 6 mins at room temperature. 50 μl of substrate ([…]™ p-Nitrophenyl phosphate Tablets (Sigma-Aldrich, N2770-50SET)) was added into each well and incubated for 20-25 mins at room temperature. […] Absorbance was read at 405 nm immediately after adding STOP solution with the ELISA reader, using the ‘RdrOle4’ software.
Hybridoma supernatants were initially screened for binding to the immunising PAR4 peptide sequence ([…]-KLH (SEQ ID NO: 4)) by antigen microarray, with binding determined by fluorescence intensity signal over background (signal from medium alone). […]

human whole blood = assay: Human whole blood thrombosis assay; format: cell-based
Method: Human whole blood collected in citrate (3.2%) was pre-incubated for 15 min at 37° C. with PE-conjugated anti-CD9 antibody (4 μg/mL) and an anti-fibrin antibody (5 μg/ml), and one of hirudin (800 U/ml), DMSO (1% v/v), PAR-1 antagonist E5555 (1 μM), anti-PAR4 antibody (0.2 mg/ml) or the combination of both PAR inhibitors. Whole blood was re-calcified with 5-7.5 mM CaCl2 (final concentration) to initiate coagulation, and drawn over glass microslides (1×0.1 mm internal diameter) coated with bovine type 1 collagen (250 μg/ml) at a fixed flow rate of 0.06 ml/min, resulting in a wall shear rate of 600 s^−1. Dual colour confocal fluorescence images were recorded at 488 and 561 nm excitation, collected through a 40× water immersion objective. Confocal z-stacks were continuously recorded for 2 min before modified, calcium-free Tyrode's buffer was flowed over the thrombi and z-stacks encompassing the entire height of the thrombus field were recorded over a period of 10 min. Platelet thrombi were defined using anti-CD9-PE and fibrin volume was quantified using average fluorescence of the thrombus field. Data were normalised against the hirudin baseline and expressed as a percentage of the control.
Thrombosis parameters including platelet deposition, thrombin activity, fibrin volume and ratio of fibrin per thrombus were measured in real-time over a period of 10 minutes in a whole blood thrombosis assay as described herein under conditions of coagulation.
Platelet deposition (PE-conjugated anti-CD9), thrombin activity (FRET-based thrombin probe), fibrin volume (Dylight650-conjugated anti-fibrin antibody) and the ratio of fibrin per thrombus at the 10 minute end-point is shown in FIG. 10A by confocal microscopy (to allow for volume measurements to be taken) using a Nikon Air with a 25× lens and 2× digital magnification.
The volume of human thrombi formed after 3 min was quantified by confocal microscopy in an ex vivo human whole blood thrombosis assay.

human isolated platelets = assay: Binding to human platelets by flow cytometry; conditions: 10 μg/ml, against isotype control
Method: Human or mouse washed platelets (5×10^7/mL) were incubated with anti-PAR4 antibody (0.1 mg/ml) for 30 mins at 37° C. and then fixed with paraformaldehyde 1% v/v final concentration). The suspension was then centrifuged at 1000×g for 2 min to obtain the platelet pellet, which was then resuspended in modified Tyrode's buffer (12 mM NaHCO3, 10 mM HEPES pH 7.4, 137 mM NaCl, 2.7 mM KCl, 5.5 mM D-glucose, 1 mM CaCl2) containing a 1:50 dilution of an FITC-conjugated […] IgG. After 30 mins at room temperature, the samples were centrifuged again, and the platelet pellet was resuspended in modified Tyrode's buffer an analysed by use of a flow cytometer (FACSCalibur, BD Biosciences).
Clone 5A.RC3 was tested for binding to isolated human platelets in vitro. Analysis of binding was determined using flow cytometry. Isolated platelets were incubated with either mouse IgG1 (isotype control) or 5A.RC3 and tested for binding to PAR4. CD41a which is a marker expressed on platelets was used as a positive control.
The binding of five anti-PAR4 monoclonal antibodies to human platelets was examined by flow cytometry.

[3] = 10 minute endpoint, 5A.RC3 100 μg/ml, hirudin 800 U/ml

T1 sequence (Q96RI0 with tags, fused parts or gaps limits assumed): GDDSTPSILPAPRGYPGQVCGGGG

ka [1]: 1.32e+06 M⁻¹ s⁻¹
kd [1]: 0.000417 s⁻¹
B1: 5A.RC3: anti-PAR4 monoclonal antibody, IgG2a/K, VH SEQ ID NO:11 and VL SEQ ID NO:12 (antibody, V domains shown)
VH: QVQLVESGGGVVQPGRSLRLSCAASGFTLSNYGMHWVRQAPGKGLEWVSVIWYDGSNKHYADSVKGRFTISRDNSKNTLYLQMNSLRAEDTAVYYCARESIVEVLPPFDYWGQGTLVTVSS
VL: KIVLTQSPGTLSLSPGERVTLSCRASQRVRNNYLAWFQQKPGQAPRLFIYGASSRATGIPDRFSGSGSGTDFIFTISRLEPEDFAVYYCQQYGNSYTFGQGTKLEIK
modifications: VH of 5A.RC3; VL of 5A.RC3
selectivity to human PAR4 peptide over PAR1, PAR2 and PAR3 [2]: 16 fold
total thrombus volume (human whole blood; 100 μg/ml, thrombi formed after 3 min): reduced total thrombus volume
ratio of fibrin per thrombus volume (human whole blood; 10 minute endpoint, 5A.RC3 100 μg/ml): significantly inhibited
fibrin volume (human whole blood; [3]): significantly inhibited
platelet deposition (human whole blood; [3]): no effect
thrombin activity (human whole blood; [3]): significantly inhibited
binding to PAR4 on isolated human platelets (human isolated platelets): binds human PAR4 in isolated platelets
